Measurements as given in doi:10.1101/2024.09.16.613172.

Legend:
Assay in all cases: ITC
[1] = biological target: MHETase-CelF (not stated | Clostridium cellulolyticum) (UniProt P37698)
[2] = biological target: FAST-PETase-CelK (not stated | Clostridium thermocellum)
[3] = biological target: ICCG-ScaA (not stated | Ruminococcus flavefaciens)
SH3L-optiMHETase = biological target: SH3L-optiMHETase

Kd [1] [nM] | Kd [2] [nM] | Kd [3] [nM] | Kd (SH3L-optiMHETase) [nM] | Substance
1000 | 19.1 |  |  | CipA-CBM-CipC (Scaf.2)
 | 6.44 | 5.25 | 3.53 | CipA-CBM-SH3D-ScaB (Scaf.4)
 |  |  | 12.6 | CipA-CBM-SH3D (Scaf.3)
